Values quoted from earlier work in patent publication US7531621B1, “PTH2 receptor selective compounds” (Societe de Conseils de Recherches et d'Applications …, priority 1999, dated 2009).

Tests used:
PTH2 receptor = PTH2 receptor (Homo sapiens, UniProt P49190); conditions: result in words, background
PTH/PTHrP receptor = biological target: T1, PTH/PTHrP receptor (Homo sapiens, UniProt Q03431); conditions: result in words, background
T1 sequence (Q03431 27-593): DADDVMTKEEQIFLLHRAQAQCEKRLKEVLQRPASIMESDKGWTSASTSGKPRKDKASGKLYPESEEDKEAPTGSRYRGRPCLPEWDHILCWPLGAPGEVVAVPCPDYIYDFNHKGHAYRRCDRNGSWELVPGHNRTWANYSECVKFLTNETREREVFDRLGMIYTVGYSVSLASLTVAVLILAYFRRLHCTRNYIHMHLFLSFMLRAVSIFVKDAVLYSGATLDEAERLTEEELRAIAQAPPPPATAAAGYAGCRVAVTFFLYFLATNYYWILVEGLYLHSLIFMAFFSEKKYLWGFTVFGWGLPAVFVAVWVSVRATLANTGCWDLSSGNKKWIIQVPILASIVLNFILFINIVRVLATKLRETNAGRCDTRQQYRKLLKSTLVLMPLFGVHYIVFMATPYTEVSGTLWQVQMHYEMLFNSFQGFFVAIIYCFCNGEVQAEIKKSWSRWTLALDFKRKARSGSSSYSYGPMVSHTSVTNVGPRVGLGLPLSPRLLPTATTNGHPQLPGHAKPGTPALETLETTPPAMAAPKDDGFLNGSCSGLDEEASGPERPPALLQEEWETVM

PTH2 receptor, sequence (P49190 25-550): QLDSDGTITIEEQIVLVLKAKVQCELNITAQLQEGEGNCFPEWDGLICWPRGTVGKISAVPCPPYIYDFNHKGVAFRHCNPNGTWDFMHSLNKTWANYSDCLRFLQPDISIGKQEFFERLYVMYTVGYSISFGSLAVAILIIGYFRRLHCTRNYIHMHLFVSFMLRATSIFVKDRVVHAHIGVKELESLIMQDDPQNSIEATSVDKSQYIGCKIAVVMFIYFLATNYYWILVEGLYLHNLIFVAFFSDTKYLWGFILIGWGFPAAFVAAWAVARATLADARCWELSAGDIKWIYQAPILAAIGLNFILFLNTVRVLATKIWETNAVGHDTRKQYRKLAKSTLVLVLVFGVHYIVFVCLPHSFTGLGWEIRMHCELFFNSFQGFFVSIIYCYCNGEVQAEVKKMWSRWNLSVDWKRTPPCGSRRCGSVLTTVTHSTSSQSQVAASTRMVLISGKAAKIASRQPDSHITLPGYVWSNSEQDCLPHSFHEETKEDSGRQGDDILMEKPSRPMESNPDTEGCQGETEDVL

activation of the PTH2 receptor (PTH2 receptor) | binding and activation of the PTH/PTHrP receptor (PTH/PTHrP receptor) | Substance
acts as a PTH-2 receptor agonist | binds and activates both receptors | Ile^5-PTHrP-(1-34) NH2
selectively activated | binds and is activated by both | PTH-(1-34)
weakly activate | – | PTHrP (7-34)
